Laboratory results from patent US20220177587A1, “METHODS AND USES OF VARIANT CD80 FUSION PROTEINS AND RELATED CONSTRUCTS” (Alpine Immune Sciences, Inc., priority 2018, published 2022).

Key:
CD28 [1] = target: T1, CD28 (Homo sapiens, UniProt P10747); assay: Flow binding to Jurkat/IL2 reporter cells (CD28); parameters: host or cells: Jurkat cells expressing an IL-2-luciferase reporter; conditions: for CD28 Fold change to WT CD80: MFI at 33.3 nM relative to CD80 WT IgV-Fc
Procedure: (§1) Binding of selected immunomodulatory fusion proteins to cognate binding partners was assessed. […] Cells were sorted in a Bio-Rad S3 Cell Sorter (Bio-Rad Corp., USA) to >98% purity. Jurkat/IL2 reporter cells, which endogenously express CD28, were used to detect binding to CD28.
(§2) For staining and analysis by flow cytometry, 100,000 cells of appropriate transfected cells were plated in 96-well round bottom plates. Cells were spun down and resuspended in staining buffer (phosphate buffered saline (PBS), 1% bovine serum albumin (BSA), and 0.1% sodium azide) for 20 minutes to block non-specific binding. […] Primary staining was performed on ice for 45 minutes, before washing cells in staining buffer twice. Phycoerythrin (PE)-conjugated anti-human Fc (Jackson ImmunoResearch, USA) was diluted 1:150, added to cells and incubated another 30 minutes on ice. Cells were then washed twice with 150 μL/well stain buffer, fixed in 2% formaldehyde/PBS, and analyzed on Intellicyt flow cytometer (Intellicyt Corp., USA). PE Mean Fluorescence Intensity (MFI) was calculated for each cell type with FlowJo Version 10 software (FlowJo LLC, USA).
(§3) Binding assays were carried out to assess the specificity and affinity of multivalent proteins to cell-expressed CTLA-4, CD28, and PD-L1 counter structures.
(§4) The EC50 for binding also was determined.

huCTLA4 = huCTLA4 (Homo sapiens, UniProt P16410); assay: Flow binding to CHO cells stably expressing CTLA4; parameters: huCTLA4 and huPD-L1, full-length mammalian surface expression constructs were generated; expressed in transfected cells; host or cells: CHO cells, lentiviral transduction, sorted to >98% purity; conditions: for CTLA4 MFI at 33.3 nM: CHO cells stably expressing CTLA4; for CTLA4 Fold change to WT CD80: MFI at 33.3 nM relative to CD80 WT IgV-Fc
Procedure: as §1, §2, §3, §4

CD28 [2] = target: T1, CD28; assay: Jurkat/IL2 + CHO/OKT3 +/- PD-L1 reporter assay: PD-L1-dependent CD28 costimulation; assay type: cell-based; parameters: host or cells: Jurkat cells expressing an IL-2-luciferase reporter; conditions: Jurkat/IL2 + CHO/OKT3/PD-L1
Procedure: Jurkat cells were then plated at 50 μL/well for a total of 100,000 cells per well.
To each well, 25 μL of test protein was added to the Jurkat cells. […] The Jurkat cells with test or control proteins were incubated for 15 minutes at room temperature. CHO-derived artificial antigen presenting cells (aAPC) displaying transduced cell surface anti-CD3 single chain Fv (OKT3) (i.e., no PD-L1), or OKT3 and PD-L1 (i.e., +PD-L1), were brought to 0.8×10^6 cells/mL, and 25 μL of cells were added to each well, bringing the final volume of each well to 100 μL. […] Jurkat cells and CHO cells were incubated for 5 hours at 37 degrees Celsius in a humidified 5% CO2 incubation chamber. Plates were then removed from the incubator and acclimated to room temperature for 15 minutes. 100 μL of a cell lysis and luciferase substrate solution (BioGlo luciferase reagent, Promega) were added to each well and the plates were incubated on an orbital shaker for 10 minutes. Luminescence was measured with a 1 second per well integration time using a BioTek Cytation luminometer, and a relative luminescence value (RLU) was determined for each test sample.

huPD-L1 = huPD-L1 (Homo sapiens, UniProt Q9NZQ7); assay: Flow binding to CHO cells stably expressing PD-L1; parameters: huCTLA4 and huPD-L1, full-length mammalian surface expression constructs were generated; expressed in transfected cells; host or cells: CHO cells, lentiviral transduction, sorted to >98% purity; conditions: for PD-L1 Fold change to WT CD80: MFI at 33.3 nM relative to CD80 WT IgV-Fc; for Ratio of PDL1:CD28: ratio of MFI at 33.3 nM
Procedure: as §1, §2, §3, §4

[3] = Table E23, CD80 IgV-Fc (inert) at 33.3 nM, Jurkat (CD28)
[4] = Table E23, CD80 IgV-Fc (inert) at 33.3 nM
[5] = Table E23, CD80 IgV-Fc (inert) at 33.3 nM, CHO cells stably expressing PD-L1
[6] = Table E20, Jurkats (CD28), 33.3 nM
[7] = Table E20, CHO cells stably expressing PD-L1, 33.3 nM
[8] = Table E25, linker variants, 33.3 nM, Jurkats (CD28)
[9] = Table E25, linker variants, 33.3 nM, CHO cells stably expressing PD-L1

huPD-L1, sequence (Q9NZQ7 19-290): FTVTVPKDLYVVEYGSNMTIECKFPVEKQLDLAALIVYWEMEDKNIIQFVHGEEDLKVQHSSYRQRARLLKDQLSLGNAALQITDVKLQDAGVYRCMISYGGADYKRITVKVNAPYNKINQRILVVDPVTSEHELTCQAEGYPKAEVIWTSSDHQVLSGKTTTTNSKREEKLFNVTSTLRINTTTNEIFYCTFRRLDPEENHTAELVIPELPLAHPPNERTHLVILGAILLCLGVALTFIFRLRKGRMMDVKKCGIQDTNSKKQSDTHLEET
huCTLA4, sequence (P16410 36-223): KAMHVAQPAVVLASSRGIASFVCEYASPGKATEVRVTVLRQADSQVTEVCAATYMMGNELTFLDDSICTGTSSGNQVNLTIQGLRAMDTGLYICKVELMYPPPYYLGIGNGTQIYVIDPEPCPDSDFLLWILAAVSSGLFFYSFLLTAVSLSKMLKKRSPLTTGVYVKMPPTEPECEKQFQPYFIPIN

Substance: H18V/A26S/E35D/M47L/V68M/A71G/D90G
- CD28 MFI at 33.3 nM (CD28 [1]; [3]): 8063
- CD28 Fold change to WT CD80 (CD28 [1]; Table E23): 79.0
- CTLA4 MFI at 33.3 nM (huCTLA4; [4]): 24919
- CTLA4 Fold change to WT CD80 (huCTLA4; Table E23): 18.0
- Fold Increase over WT CD80-IgV-Fe (CD28 [2]; Table E24, 5.0 nM): 5.2
- Relative Luciferase Units (RLU), CD80 Conc 5.0 nM (CD28 [2]; Table E24, 5.0 nM): 883 RLU
- PD-L1 MFI at 33.3 nM (huPD-L1; [5]): 73884
- PD-L1 Fold change to WT CD80 (huPD-L1; Table E23): 447.8
- Ratio of PDL1:CD28 (huPD-L1; Table E23): 9.2

Substance: H18Y/M47L/V68M/A71G/D90G
- CTLA4 MFI at 33.3 nM (huCTLA4; Table E20, 33.3 nM): 22235
- Relative Luciferase Units (RLU), CD80 Conc 5.0 nM (CD28 [2]; Table E22, CD80 Conc 5.0 nM): 986 RLU

Substance: H18Y/E35D/M47V/V68M/A71G/D90G
- CD28 MFI at 33.3 nM (CD28 [1]; [3]): 6792
- CD28 Fold change to WT CD80 (CD28 [1]; Table E23): 66.6
- CTLA4 MFI at 33.3 nM (huCTLA4; [4]): 17165
- CTLA4 Fold change to WT CD80 (huCTLA4; Table E23): 12.4
- Fold Increase over WT CD80-IgV-Fe (CD28 [2]; Table E24, 5.0 nM): 4.8
- Relative Luciferase Units (RLU), CD80 Conc 5.0 nM (CD28 [2]; Table E24, 5.0 nM): 825 RLU
- PD-L1 MFI at 33.3 nM (huPD-L1; [5]): 52151
- PD-L1 Fold change to WT CD80 (huPD-L1; Table E23): 316.1
- Ratio of PDL1:CD28 (huPD-L1; Table E23): 7.7

Substance: H18Y/A26E/M47L/V68M/A71G
- CD28 MFI at 33.3 nM (CD28 [1]; [6]): 544
- CTLA4 MFI at 33.3 nM (huCTLA4; Table E20, 33.3 nM): 21742
- PD-L1 MFI at 33.3 nM (huPD-L1; [7]): 29730

Substance: H18Y/A26E/E35D/V68M/D90G
- CD28 MFI at 33.3 nM (CD28 [1]; [6]): 2584
- CD28 Fold change to WT CD80 (CD28 [1]; Table E20): 58.9 fold
- CTLA4 MFI at 33.3 nM (huCTLA4; Table E20, 33.3 nM): 19331
- CTLA4 Fold change to WT CD80 (huCTLA4; Table E20): 14.2 fold
- Fold Increase over WT CD80-IgV-Fe (CD28 [2]; Table E22, 5.0 nM): 2.69 fold
- Relative Luciferase Units (RLU), CD80 Conc 5.0 nM (CD28 [2]; Table E22, CD80 Conc 5.0 nM): 1049 RLU
- PD-L1 MFI at 33.3 nM (huPD-L1; [7]): 23206
- PD-L1 Fold change to WT CD80 (huPD-L1; Table E20): 532.2 fold
- Ratio of PDL1:CD28 (huPD-L1; Table E20): 9.0

Substance: A26E/E35D/M47L/V68M/D90G
- CTLA4 MFI at 33.3 nM (huCTLA4; Table E20, 33.3 nM): 26698

Substance: H18Y/A26E/E35D/M47L/A71G/D90G
- Relative Luciferase Units (RLU), CD80 Conc 5.0 nM (CD28 [2]; Table E22, CD80 Conc 5.0 nM): 1015 RLU

Substance: H18Y/A26E/E35D/V68M/A71G/D90G
- CD28 MFI at 33.3 nM (CD28 [1]; [6]): 1757
- CD28 Fold change to WT CD80 (CD28 [1]; Table E20): 40.0 fold
- CTLA4 MFI at 33.3 nM (huCTLA4; Table E20, 33.3 nM): 23386
- CTLA4 Fold change to WT CD80 (huCTLA4; Table E20): 17.2 fold
- Fold Increase over WT CD80-IgV-Fe (CD28 [2]; Table E22, 5.0 nM): 2.41 fold
- Relative Luciferase Units (RLU), CD80 Conc 5.0 nM (CD28 [2]; Table E22, CD80 Conc 5.0 nM): 940 RLU
- PD-L1 MFI at 33.3 nM (huPD-L1; [7]): 28683
- PD-L1 Fold change to WT CD80 (huPD-L1; Table E20): 657.9 fold
- Ratio of PDL1:CD28 (huPD-L1; Table E20): 16.3

Substance: H18Y/A26E/E35D/M47L/D90G
- CD28 MFI at 33.3 nM (CD28 [1]; [6]): 1379
- CD28 Fold change to WT CD80 (CD28 [1]; Table E20): 31.4 fold
- CTLA4 MFI at 33.3 nM (huCTLA4; Table E20, 33.3 nM): 19736
- CTLA4 Fold change to WT CD80 (huCTLA4; Table E20): 14.5 fold
- Fold Increase over WT CD80-IgV-Fe (CD28 [2]; Table E22, 5.0 nM): 2.37 fold
- Relative Luciferase Units (RLU), CD80 Conc 5.0 nM (CD28 [2]; Table E22, CD80 Conc 5.0 nM): 925 RLU
- PD-L1 MFI at 33.3 nM (huPD-L1; [7]): 12698
- PD-L1 Fold change to WT CD80 (huPD-L1; Table E20): 291.2 fold
- Ratio of PDL1:CD28 (huPD-L1; Table E20): 9.2

Substance: H18Y/E35D/V68M/A71G/D90G
- CD28 MFI at 33.3 nM (CD28 [1]; [6]): 2724
- CTLA4 MFI at 33.3 nM (huCTLA4; Table E20, 33.3 nM): 24335
- Relative Luciferase Units (RLU), CD80 Conc 5.0 nM (CD28 [2]; Table E22, CD80 Conc 5.0 nM): 815 RLU

Substance: CD80 WT ECD-Fc
- CD28 MFI at 33.3 nM (CD28 [1]; [3]): 57.8
- PD-L1 MFI at 33.3 nM (huPD-L1; [5]): 161

Substance: Inert Fc (control)
- CD28 MFI at 33.3 nM (CD28 [1]; [8]): 20
- CTLA4 MFI at 33.3 nM (huCTLA4; Table E25, linker variants, 33.3 nM): 40
- PD-L1 MFI at 33.3 nM (huPD-L1; [9]): 58

Substance: WT CD80 ECD-Fc: wild-type CD80 ECD (SEQ ID NO:2)-Fc; R&D Systems where stated [reference compound]
- CD28 MFI at 33.3 nM (CD28 [1]; Table E3, 33.3 nM): 7627
- CD28 MFI at 33.3 nM (CD28 [1]; Table E4, 33.3 nM, Jurkat cells (CD28)): 18035
- CD28 MFI at 33.3 nM (CD28 [1]; Table E11, Jurkats (CD28), 33.3 nM): 31
- CD28 MFI at 33.3 nM (CD28 [1]; Table E14, Jurkats (CD28), 33.3 nM): 30
- CD28 MFI at 33.3 nM (CD28 [1]; Table E16, consensus variants, Jurkats (CD28), 33.3 nM): 46
- CD28 MFI at 33.3 nM (CD28 [1]; [6]): 42.3
- CD28 MFI at 33.3 nM (CD28 [1]; [8]): 37
- EC50 (CD28 [1]; Table E31, flow binding to Jurkats (CD28), read-out: CD28 EC50): 164 nM
- PD-L1 MFI at 33.3 nM (huPD-L1; Table E3, 33.3 nM): 7943
- PD-L1 MFI at 33.3 nM (huPD-L1; Table E4, 33.3 nM, CHO cells stably expressing PD-L1): 11871
- PD-L1 MFI at 33.3 nM (huPD-L1; Table E11, CHO cells stably expressing PD-L1, 33.3 nM): 52
- PD-L1 MFI at 33.3 nM (huPD-L1; Table E14, CHO cells stably expressing PD-L1, 33.3 nM): 68
- PD-L1 MFI at 33.3 nM (huPD-L1; Table E16, consensus variants, CHO cells stably expressing PD-L1, 33.3 nM): 58
- PD-L1 MFI at 33.3 nM (huPD-L1; [7]): 6377
- PD-L1 MFI at 33.3 nM (huPD-L1; [9]): 35
- EC50 (huPD-L1; Table E31, flow binding to CHO cells stably expressing PD-L1): 31.2 nM

Substance: H18V/A26R/E35D/M47L/V68M/A71G/D90G
- CD28 MFI at 33.3 nM (CD28 [1]; [3]): 9620
- CTLA4 MFI at 33.3 nM (huCTLA4; [4]): 23151
- PD-L1 MFI at 33.3 nM (huPD-L1; [5]): 73166

Substance: H18Y/A26E/E35D/M47L/V68M/A71G
- CTLA4 MFI at 33.3 nM (huCTLA4; Table E20, 33.3 nM): 25404
- Relative Luciferase Units (RLU), CD80 Conc 5.0 nM (CD28 [2]; Table E22, CD80 Conc 5.0 nM): 976 RLU
- PD-L1 MFI at 33.3 nM (huPD-L1; [7]): 28546
